Data reported in the DeepSol protein solubility set.

Test: soluble on expression in E. coli; label from the status in PepcDB or PDB records

Soluble on expression in E. coli, not soluble:
MGSDKIHHHHHHMRKAGESMKEFISLKIDYAFKLIFGKEGNEAILIAFLNAALKLPQERRIEAITIMNPELNKEYQGDKKSILDVRAETSEGMQINIEIQLSNQYDMEKRSLYYWAEMYSRQIREGMAYKELAKAVTINILDFNYLKQTSNYHNVFHLYEDEEKFQLTDALEMHFMELPKLLAKWRNREISPWENELVRWLLLLEGADNQEILQTLEEIAMKDPVLHQAMTAWEETSDDPRIREAYFDRRKAVLDEKAAIREAELRLKEALEKGRAAGIAAGKAEGKAEVAKKLLDLGFEITKVAEATGLSEKDIRSLKD
MGSDKIHHHHHHMRKIKLIIFPGYYIPHIGGLETHVDEFTKHLSEDENYDIYIFAPNIPKYKEFEIRHNNVKVYRYPAFEIIPNYPVPNIFNIKFWRMFFNLYKIDFDIVMTRTRFFSNTLLGFIFAKLRFKKKKLIHVEHGSAFVKLESEFKNKLSYFYDKTIGKLIFKKADYVVAISKAVKNFILENFVNDKDIPIIYRGLEIEKIESIGEDKKIKEKFKNKIKLCFVGRLYKWKGVENIIKAYVDLPKDLKEKIILIVVGYGEDLERLKKLAGNYLNNGIYFTGKVDFEKAIAIVKASDIYIHSSYKGGGLSSSLLQAMCCGKAIVASPYEGADEVVIDGYNGILLKDNSPEEIKRGIIKLIENNNLRKIYGENAKNFIKENFNWKKSVKEYKKIFERLVN
MGSDKIHHHHHHMRKLAHNFYKPLAIGAPEPIRELPVRPERVVHFFPPHVEKIRARIPEVAKQVDVLCGNLEDAIPMDAKEAARNGFIEVVKATDFGDTALWVRVNALNSPWVLDDIAEIVAAVGNKLDVIMIPKVEGPWDIHFVDQYLALLEARHQIKKPILIHALLETAQGMVNLEEIAGASPRMHGFSLGPADLAASRGMKTTRVGGGHPFYGVLADPQEGQAERPFYQQDLWHYTIARMVDVAVAHGLRAFYGPFGDIKDEAACEAQFRNAFLLGCTGAWSLAPNQIPIAKRVFSPDVNEVLFAKRILEAMPDGSGVAMIDGKMQDDATWKQAKVIVDLARMIAKKDPDLAQAYGL
MGSDKIHHHHHHMRKMRVLAIGNVFNPSGVSVHIINVLKELVKMGDEVFLYVPSFLVRRNYEVLKDLENAHISVHHSVYETKEAEEVGTLPYFIRSHTVYLRWNNLGEDRKYIDELKDIKPDVIYDMHEDSITLRLSYHIAKRLNKPLVKLLHDEPFRNSFGRGYRKFLGIKGLAYDTLMWMFYKFDKRAFLRSINDGILRGIAGVSKAPFYLSGIEEIAHSVRLKVYEVGNAFNKDIIYKYRRTRGKEDYAVFFARLVPQKGIKELPKIADLLDSKIVVFGKIFNENDRSILMSHPKIEYKGYRPIEEVYNTVAKAKVLIYPSHQDGFSLVVLDTLALGTSVVAYDIPAIRFVFSSLKPVRTVREYDIKEMASTANSILRMKDEEYESEHEDEKVKKFLELHSSWANVAKETHDFLSAFL
MGSDKIHHHHHHMRLILYLGKGGVGKTTTSAATAVRAAELGYRTLVVSTDVAHSLADALDTPLGSLPTQITERLWGQEINVLDEVREHWGELRVYLSNLLRRRGVDEVAAEELAIIPGMEEVVSLLHIRRQAREGNFDVVIVDAAPTGETVRLLTMPETFQWYAARVMDWEPTTLKVARPLVKQLVPATDVFAKLERLTKGVEALRATLTDPQISSYRLVVNPERMVIKEAQRASTYLALFGYPVDGVVLNRVLPVDQVEGAFMQELARIQQGYRQMVYDLFRPLPIWESPYFARDLAGIEDLAMVGRRLFGDDDPVKVHFIGKTQEIVKQGDEYVLRLPLPHVEIGKVSMTKRGDELFIEIGNFRRDMLLPTTLAERPARRAYFRNGVLEVFFGPPETLSLKTDAQEESTPS
MGSDKIHHHHHHMRLNELYSGKNAFIFQGVGIKYQKFLTLLDESQRELLKEYCSIVYKKIKLDLWGYLTRSLSGEYDDKFSDWVSIYTIDCVVYNTYIEDGIKPSVLLGYSMGLITALACGKAISFEEGLELLSMSYNYPKYTSRKDEGMGLVTGMTCSDIKKIIDKNELGDYAYIASENNEYCILVSGMKNRVDKLLSIALTEGALSAKDIDSPYAFHSKYALIGIEEYEKLVSRLCVCNLKIPIISSYDQRIIVDSCELKKELVKNVWGEMKWMASVEKAININNYNFFEVSLIDSISRFSRMINSNCKFFTYKSFMKIKNVQVQN
MGSDKIHHHHHHMRLVVDGFGKYLGIENGLIVVKEKGKALRKVRPEDLKQVLIIGKAAISSDAIKLLLKNRVDVVFLDFNGEILGRLSHPLIGTAKTRREQYLAYGDKRGVHLAKEFIKAKMANQMAILTNLAKARKDSNPEVAESLLKAKKEIDACLNELDGVEAEMIDKVRERLLGIEGKASKHYWDAISLVIPEEYRFNGRRGIEIGSPRYAKDIVNAMLNYGYSILLAECVKAVELAGLDPYAGFLHVDVSGRSSLAIDLMENFRQQVVDRVVLRLISYRQIKPEDCEKRNMVCQLSDNARRLLLASLLERLDSKTQYRGRNLAYSSIILLHARDVVAFLRGERRYEGFVQKW
MGSDKIHHHHHHMRMTTDKKQGKSRELDLFITDLNGNLRGKRLPASGLKKLRKEGLKLPLSVVGFDFWGADVLDNGLVFETGDSDGVCMPVSQEPIPVPWSEAPRDQMLAMMFNPDGTPFGADPRQVLNRMVDRFSAKGLTPVLATELEFYLMDAESESVQRPIPPALADGKGRRLANAEGYSVEEMDGFEAFFADIREACQGQGIGADTIIAEMGPGQFEVNLNHVADPLNAGDQAILFKRLVRGVSRRHGYAATFMAKPYVEESGNGFHTHFSLLDRDGNNVFDDGTEQGSDLLRHAIAGMMQLMPESMLVFAPHLNSYRRFMPGAHAPTHASWGYENRTVALRVPESPNLARRIEHRVAGADANPYLVLASILAGALHGMENALEPDAPVEGDAYAEESPRYPLPCEWQDAIARFEQSEILREYLGEEFVRVYAQAKRQERRRLNERISDVEYEAYLGLL
MGSDKIHHHHHHMRPVEHAVIPCAGVGSRLNRGVPKSLTEIDGRTLLGRTLLALEHIPHVFLVVGFRKELVISEALRHRRNLIFVPNEYFDQTNTLYSVKLASRLIRDDFLMVDGDVVFDPSSFASLLGQLQTCDGPAIAYSRRTTEDGVKVRLDMSRGETTCTGFFRGEGAHEWTGIGRLNNRVISGNSLFVYESIERHMPAPAYLVDSMDIDTPADLEIARATYGRHDH
MGSDKIHHHHHHMRSADSSPAYSPIGSLSSSHSFDSIPDQRMNKSLLSLACLILCGMPAIAQQTGPAERSGEPSLAERVFGLEQKQKKLKVYLGIQSFYDQPLVDDESHIGHFKVQELRMSAHGELNRHLSFDWRQRLNRAADGTSFADNLSNAIDIAGVDWHPNDKVSFFFGRQYARFGGIEYDMNPVEIYQYSDLVDYMTCYTSGVNFAWNFHPEQQLQLQVLNAYNNRFADRYHVTPDVATATSYPLLYSAQWNGTLLGGALHMRYAVSMAHQAQERNMWYFTAGNLFNPGKRINGYLDLTYSIEGLDDKGIMTARYGKGKTLTDVKYYALVSKWNFRIFDQVNLFLKGMYENGYAPAQYGESSHTRHSYGYMGGVEYYPTETNFRLFVTYIGRHYRYSATETESTNALRAGLIYQIPFL
MGSDKIHHHHHHMRSSSKCSSVRFQFFVVELFMTTTQSAGEITGNVLFYNAPEPLNREQHAKLALVHKDKPYAFAAAGTAVPLTVSEFAPAALTFPVIFAGDDRVPLAVMGLNQQENLFIGADGSIEANVYIPAYIRRYPFVLANDDTQDRLIVCIDRGSDLLSEQGQTPLFDAKGEPTEYTQNCIKFCDDFEVERRRTDSFVQILKDNDLFELKKATFQPTDEVGAPVGEPVTVAEYFGVSEEKLNGLSAEKLKELQENGALAQIYAHLVSLLGWDRLINKTMMKQAEAANLN
MGSDKIHHHHHHMRTDNKLSGIIAKKHSFSVPLDYQQSPSEQINLFVRELSSVEHQNKELPYLVFFQGGPGFGAVRPVANTGWIKRALTQYRVLLLDQRGTGLSTPVSAESLAHLTSQQQAEYLSHFRSDNIIRDAELIRAKLSPDRPWSILGQSFGGFCVLRYLSAAPQGLKAAYITGGIPSLERSADEVYQATYQRVLAKNQDFFSRFSDARELANRLASHISEYEVLLSSGERLTVEMLQLLGINLGMEQGPEGVYYLLEQALIDTAQGVKVNPLFLHQFGQFLDYNTNPLFAVLHESIYCQNSASNWAAHRVREQYSQFNYHLGKDLLFTGEMVYPWMFDQFSQLQPLKEAAELLAAKSDWPALYDLEQLKANTVPVSAAIYSEDMFVEMQYSLETTKDVGSLKYWLTSEYEHNGIRMDGERVLDKLIALNTGRELR
MGSDKIHHHHHHMRTLKELERELQPRQHLWYFEYYTGNNVGLFMKMNRVIYSGQSDIQRIDIFENPDLGVVFALDGITMTTEKDEFMYHEMLAHVPMFLHPNPKKVLIIGGGDGGTLREVLKHDSVEKAILCEVDGLVIEAARKYLKQTSCGFDDPRAEIVIANGAEYVRKFKNEFDVIIIDSTDPTAGQGGHLFTEEFYQACYDALKEDGVFSAETEDPFYDIGWFKLAYRRISKVFPITRVYLGFMTTYPSGMWSYTFASKGIDPIKDFDPEKVRKFNKELKYYNEEVHVASFALPNFVKKELGLM
MGSDKIHHHHHHMRTVYAIVVNYNNFDDTAECIDSLLNQTYPCRVVVVDNGSEREVIEKLRRKYPQVEMLELGENRGYAGGCNAGIRAVIDKADYVLISNNDVVFERDAVERMVSEMEEDETIAACQPVVKYYGDERIWSAGTRIFLGYPVLHLKNKMVEVEISFDSPFGLVGCAMLIRSSALKDVGFFDEELFMMHEETEWCIRARKKGYRLAVCKAVVRHKVSASLGLFSPHYLYYTARNWLIVARRAGKAMFFYALITEPLRVLYYLVRLKRKGDIIQYLKGVVHGILSRKGRRC
MGSDKIHHHHHHMRTVYIIGSKGIPAKYGGFETFVEKLTEYQKDKSINYFVACTRENSAKSGITGEVFEHNGATCFNIDVPNIGSAKAILYDIMALKKSIEIAKDRNDTSPIFYILACRIGPFIYLFKKQIESIGGQLFVNPDGHEWLREKWSYPVRQYWKFSESLMLKYADLLICDSKNIEKYIHEDYRKYAPETSYIAYGTDLDKSRLSPTDSVVREWYKEKEISENDYYLVVGRFVPENNYEVMIREFMKSYSRKDFVLITNVEHNSFYEKLKKETGFDKDKRIKFVGTVYNQELLKYIRENAFAYFHGHEVGGTNPSLLEALSSTKLNLLLDVGFNREVGEEGAKYWNKDNLHRVIDSCEQLSQEQINDMDSLSTKQVKERFSWDFIVDEYEKLFKG
MGSDKIHHHHHHMRVIPPIKSIIYFEAAARLQSFKLAAMELNVTPGAISHQISTLEDFIGKKVFERGSRRVTLTYCGLRYYSRISIILQNMEEATVDLGIEGSKPKIKIAIPPSLLKNWLLPRLVDDKLKDLNRSVEFIDTLDYLEFSKCDLDLAIRYGYDSWDNLYSVFLFHEEMIPVCHPNYFISEFTDFTQEIIDNHTLIFTNNRLVQWDIVMQYFGLERKSTQSKLIFQNSIQAIEAAIQGAGIAYVNRILVSKELSNGRLIQPFDIYMPKHKSPAYHLVSTYEHMQDEATFKLYQTILEFAKSTPHQHIVNAQAKQNAWLEHAV
MGSDKIHHHHHHMRVLLLSDIHSSTQNLEKILKAAEYDAVFIAGDLTQFRPKDAKVVDEIISEQTDSCLAVHGNCDHEAILGEKYKALKFIHGKSVEFDGYTVHGVGGSGITPFNTPSEYTEREILEIMDNFVLRDFNILLSHCPPKGFLDRTYSGVHAGCEAIRERMIEFDVILCGHIHESHGVVDSPQLIVNPGPVMWGRFAVIDVEKKVVELRKL
